{
  "source": "patent US20080050387A1",
  "about": "(published 2008)",
  "binders": {"B1": {"name": "ARA67/PAT1, full length (585 amino acids) (other)", "chain": "MAAVELEWIPETLYNTAISAVVDNYIRSRRDIRSLPENIQFDVYYKLYQQGRLCQLGSEFCELEVFAKVLRALDKRHLLHHCFQALMDHGVKVASVLAYSFSRRCSYIAESDAAVKEKAIQVGFVLGGFLSDAGWYSDAEKVFLSCLQLCTLHDEMLHWFRAVECCVRLLHVRNGNCKYHLGEETFKLAQTYMDKLSKHGQQANKAALYGELCALLFAKSHYDEAYKWCIEAMKEITAGLPVKVVVDVLRQASKACVVKREFKKAEQLIKHAVYLARDHFGSKHPKYSDTLLDYGFYLLNVDNICQSVAIYQAALDIRQSVFGGKNIHVATAHEDLAYSSYVHQYSSGKFDNALFHAERAIGIITHILPEDHLLLASSKRVKALILEEIAIDCHNKETEQRLLQEAHDLHLSSLQLAKKAFGEFNVQTAKHYGNLGRLYQSMRKFKEAEEMHIKAIQIKEQLLGQEDYEVALSVGHLASLYNYDMNQYENAEKLYLRSIAIGKKLFGEGYSGLEYDYRGLIKLYNSIGNYEKVFEYHNVLSNWNRLRDRQYSVTDALEDVSTSPQSTEEVVQSFLISQNVEGPSC", "notes": "Used as GST-ARA67 on beads, as [35S]methionine-labeled ARA67, as GAL4 DBD fusion (pM-ARA67) and as HA-ARA67 (pKH3) in COS-1 cells; also called ARA671-585; GST-ARA67"}, "B2": {"name": "GAL4 activation domain alone (other, UniProt P04386 768-881, looked up)", "chain": "ANFNQSGNIADSSLSFTFTNSSNGPNLITTQTNSQALSQPIASSNVHDNFMNNEITASKIDDGNNSKPLSPGWTDQTAYNAFGITTGMFNTTTMDDVYNYLFDDEDTPPNPKKE", "notes": "Negative control; also called GAL4-AD"}, "B3": {"name": "AR N-terminus, full length ARN (ARN1-556) (receptor)", "chain": "MEVQLGLGRVYPRPPSKTYRGAFQNLFQSVREVIQNPGPRHPEAASAAPPGASLLLLQQQQQQQQQQQQQQQQQQQQQETSPRQQQQQQGEDGSPQAHRRGPTGYLVLDEEQQPSQPQSALECHPERGCVPEPGAAVAASKGLPQQLPAPPDEDDSAAPSTLSLLGPTFPGLSSCSADLKDILSEASTMQLLQQQQQEAVSEGSSSGRAREASGAPTSSKDNYLGGTSTISDNAKELCKAVSVSMGLGVEALEHLSPGEQLRGDCMYAPLLGVPPAVRPTPCAPLAECKGSLLDDSAGKSTEDTAEYSPFKGGYTKGLEGESLGCSGSAAAGSSGTLELPSTLSLYKSGALDEAAAYQSRDYYNFPLALAGPPPPPPPPHPHARIKLENPLDYGSAWAAAAAQCRYGDLASLHGAGAAGPGSGSPSAAASSSWHTLFTAEEGQLYGPCGGGGGGGGGGGGGGGGGGGGGGGGEAGAVAPYGYTRPPQGLAGQESDFTAPDVWYPGGMVSRVPYPSPTCVKSEMGPWMDSYSGPYGDMRLETARDHVLPIDYYFPPQ"}, "B4": {"name": "PCNA-like domain of hRad9 (N-hRad9, aa 1-270) (other)", "chain": "MKCLVTGGNVKVLGKAVHSLSRIGDELYLEPLEDGLSLRTVNSSRSAYACFLFAPLFFQQYQAATPGQDLLRCKILMKSFLSVFRSLAMLEKTVEKCCISLNGRSSRLVVQLHCKFGVRKTHNLSFQDCESLQAVFDPASCPHMLRAPARVLGEAVLPFSPALAEVTLGIGRGRRVILRSYHEEEADSTAKAMVTEMCLGEEDFQQLQAQEGVAITFCLKEFRGLLSFAESANLNLSIHFDAPGRPAIFTIKDSLLDGHFVLATLSDTDS", "notes": "GAL4 DBD fusion (pM) in the two-hybrid assay; Flag-tagged (pCDNA3-Flag) in the AR N/C assay; also called N-terminus of hRad9"}, "B5": {"name": "ARA67 281-550 (other)", "chain": "GSKHPKYSDTLLDYGFYLLNVDNICQSVAIYQAALDIRQSVFGGKNIHVATAHEDLAYSSYVHQYSSGKFDNALFHAERAIGIITHILPEDHLLLASSKRVKALILEEIAIDCHNKETEQRLLQEAHDLHLSSLQLAKKAFGEFNVQTAKHYGNLGRLYQSMRKFKEAEEMHIKAIQIKEQLLGQEDYEVALSVGHLASLYNYDMNQYENAEKLYLRSIAIGKKLFGEGYSGLEYDYRGLIKLYNSIGNYEKVFEYHNVLSNWNRLRDRQ", "notes": "GST fusion on beads"}, "B6": {"name": "ARA67 8-140 (other)", "chain": "WIPETLYNTAISAVVDNYIRSRRDIRSLPENIQFDVYYKLYQQGRLCQLGSEFCELEVFAKVLRALDKRHLLHHCFQALMDHGVKVASVLAYSFSRRCSYIAESDAAVKEKAIQVGFVLGGFLSDAGWYSDAE", "notes": "GST fusion on beads"}, "B7": {"name": "C-terminus of hRad9 (aa 269-391) (other)", "chain": "DSHSQDLGSPERHQPVPQLQAHSTPHPDDFANDDIDSYMIAMETTIGNEGSRVLPSISLSPGPQPPKSPGPHSEEEDEAEPSTVPGTPPPKKFRSLFFGSILAPVRSPQGPSPVLAEDSEGEG", "notes": "GAL4 DBD fusion (pM) in the two-hybrid assay; Flag-tagged (pCDNA3-Flag) in the AR N/C assay; also called C-hRad9; hRad9 C-terminus"}},
  "key": {"[1]": {"target": "T1, androgen receptor (AR), full length (human, UniProt P10275 1-920)", "T1 construct": "also called AR-FL; pCMV-AR", "T1 sequence": "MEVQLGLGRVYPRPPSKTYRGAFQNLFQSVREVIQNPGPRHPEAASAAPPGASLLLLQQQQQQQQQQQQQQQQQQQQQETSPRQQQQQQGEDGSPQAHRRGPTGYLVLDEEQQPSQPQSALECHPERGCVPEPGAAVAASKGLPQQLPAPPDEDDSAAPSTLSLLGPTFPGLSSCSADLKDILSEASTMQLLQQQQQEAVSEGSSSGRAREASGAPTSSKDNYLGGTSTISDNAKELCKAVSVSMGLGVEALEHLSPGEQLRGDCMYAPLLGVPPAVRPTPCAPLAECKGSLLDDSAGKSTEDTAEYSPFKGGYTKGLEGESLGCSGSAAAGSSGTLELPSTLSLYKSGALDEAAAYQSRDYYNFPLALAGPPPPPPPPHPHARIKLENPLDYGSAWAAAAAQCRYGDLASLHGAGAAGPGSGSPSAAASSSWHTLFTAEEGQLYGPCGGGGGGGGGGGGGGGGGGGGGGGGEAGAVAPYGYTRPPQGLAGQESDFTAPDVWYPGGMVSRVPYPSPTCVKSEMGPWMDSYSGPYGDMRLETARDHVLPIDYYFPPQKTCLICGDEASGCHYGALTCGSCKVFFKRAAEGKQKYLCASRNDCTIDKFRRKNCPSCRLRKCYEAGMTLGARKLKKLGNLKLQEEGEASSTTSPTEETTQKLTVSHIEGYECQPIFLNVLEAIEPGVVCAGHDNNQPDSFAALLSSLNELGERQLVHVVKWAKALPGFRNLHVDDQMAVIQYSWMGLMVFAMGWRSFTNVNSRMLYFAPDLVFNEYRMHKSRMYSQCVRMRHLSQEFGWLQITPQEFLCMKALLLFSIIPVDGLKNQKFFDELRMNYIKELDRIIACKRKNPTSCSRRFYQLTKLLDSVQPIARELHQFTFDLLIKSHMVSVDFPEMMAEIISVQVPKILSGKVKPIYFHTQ", "test": "GST pull-down: GST-ARA67 with 35S-labeled AR, with or without 10 uM DHT", "description": "Pulled-down proteins were separated on SDS-PAGE and visualized by autoradiography. […] After transfection cells were treated with or without 10 nM DHT for 24 h before harvesting. 500 μg total cell lysate proteins from each samples were immunoprecipitated with anti-AR antibody for Western blot analysis with anti-AR and anti-HA antibody (Roche).\nThe immunoprecipitates were analyzed by Western blotting."}, "AR DBD-LBD": {"target": "T2, AR DBD-LBD (human, UniProt P10275 557-920)", "T2 construct": "also called GAL4-DBD-AR-DBD-LBD; GAL4-AR-DBD-LBD", "T2 sequence": "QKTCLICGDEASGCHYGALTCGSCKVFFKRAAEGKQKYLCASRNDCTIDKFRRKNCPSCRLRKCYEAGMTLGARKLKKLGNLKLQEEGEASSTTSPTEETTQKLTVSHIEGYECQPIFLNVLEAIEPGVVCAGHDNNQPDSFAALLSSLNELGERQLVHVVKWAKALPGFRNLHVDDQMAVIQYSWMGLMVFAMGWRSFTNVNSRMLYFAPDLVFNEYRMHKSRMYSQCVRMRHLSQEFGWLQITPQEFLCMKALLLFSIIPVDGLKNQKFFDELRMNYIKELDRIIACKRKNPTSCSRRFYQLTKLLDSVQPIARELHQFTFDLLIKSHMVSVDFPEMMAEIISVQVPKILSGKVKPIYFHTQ", "test": "yeast two-hybrid, liquid β-gal assay, bait GAL4 DBD-AR-DBD-LBD", "description": "Liquid β-gal assay was performed as described previously.\nIn order to screen proteins with ligand-dependent interaction with AR, the human AR DBD-LBD was fused with the DBD of GAL4 functioned as bait in yeast two-hybrid screening (FIG. 23A). A pretransformed normal human ovary cDNA library was screened in the presence of 10 nM DHT."}, "[2]": {"target": "B1", "test": "mammalian two-hybrid in H1299 cells, pM-ARA67 + pVP16-ARN, pG5-Luc"}, "[3]": {"target": "T3, VP16-AR containing the residues 37 to 919 (human, UniProt P10275 37-920)", "T3 construct": "also called pCMX-VP16-AR; full length AR fused to VP16", "T3 sequence": "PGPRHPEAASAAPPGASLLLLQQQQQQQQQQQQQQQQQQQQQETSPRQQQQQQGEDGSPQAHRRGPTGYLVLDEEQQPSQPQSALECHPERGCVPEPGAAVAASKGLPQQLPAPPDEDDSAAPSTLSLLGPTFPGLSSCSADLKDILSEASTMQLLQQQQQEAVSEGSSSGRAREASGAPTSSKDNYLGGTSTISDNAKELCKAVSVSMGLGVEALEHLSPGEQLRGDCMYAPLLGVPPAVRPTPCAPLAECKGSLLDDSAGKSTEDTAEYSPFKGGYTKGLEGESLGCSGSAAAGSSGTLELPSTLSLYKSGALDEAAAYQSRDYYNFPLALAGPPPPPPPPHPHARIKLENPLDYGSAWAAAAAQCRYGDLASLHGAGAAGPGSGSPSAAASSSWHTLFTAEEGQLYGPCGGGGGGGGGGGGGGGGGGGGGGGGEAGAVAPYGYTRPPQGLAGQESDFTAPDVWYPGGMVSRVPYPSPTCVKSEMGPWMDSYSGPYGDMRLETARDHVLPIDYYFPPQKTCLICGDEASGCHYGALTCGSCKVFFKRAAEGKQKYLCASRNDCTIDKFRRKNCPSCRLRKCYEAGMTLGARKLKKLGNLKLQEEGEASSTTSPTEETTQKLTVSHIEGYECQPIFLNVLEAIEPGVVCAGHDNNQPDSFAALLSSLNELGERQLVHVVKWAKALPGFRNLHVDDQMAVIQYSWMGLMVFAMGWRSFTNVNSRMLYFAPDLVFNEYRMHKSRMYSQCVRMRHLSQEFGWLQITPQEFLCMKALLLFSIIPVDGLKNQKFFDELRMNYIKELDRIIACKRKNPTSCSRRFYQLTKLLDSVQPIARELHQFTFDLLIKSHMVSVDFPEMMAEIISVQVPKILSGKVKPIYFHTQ", "test": "mammalian two-hybrid in PC-3 cells, GAL4 DBD-N-hRad9 + VP16-AR, 10 nM DHT"}, "[4]": {"target": "B3", "test": "GST pull-down: GST-ARA67 fragments with 35S-labeled ARN"}, "[5]": {"target": "T3, VP16-AR containing the residues 37 to …", "test": "mammalian two-hybrid in PC-3 cells, GAL4 DBD-hRad9 constructs + VP16-AR, 10 nM DHT"}},
  "data": [
    {"binder": "B1", "values": [
      {"measurement": "binding result", "setting": "[1]", "value": "binds"}
    ]},
    {"binder": "B2", "values": [
      {"measurement": "binding result", "setting": "AR DBD-LBD", "value": "no binding"}
    ]},
    {"binder": "B3", "values": [
      {"measurement": "binding result", "setting": "[2]", "value": "binds"}
    ]},
    {"binder": "B4", "values": [
      {"measurement": "binding result", "setting": "[3]", "value": "no binding"}
    ]},
    {"binder": "B5", "values": [
      {"measurement": "binding result", "setting": "[4]", "value": "binds"}
    ]},
    {"binder": "B6", "values": [
      {"measurement": "binding result", "setting": "[4]", "value": "binds"}
    ]},
    {"binder": "B7", "values": [
      {"measurement": "binding result", "setting": "[5]", "value": "binds"}
    ]}
  ]
}
